The record followed here is article PMC5990521, “Structural basis of DUX4/IGH-driven transactivation”.

The Kd is the equilibrium constant for the complex coming apart.

Common to all, as to assay: BLI; BLI on Octet Red 96, biotin-DNA-DRE on SA sensors, protein 0.5-32 uM (HD2) or 0.25-16 uM (HD1-HD2); buffer, salt, pH and temperature not given in the material
One data set deals with DUX4 HD2 Q143E (human, UniProt Q9UBX2 94-153, Q143E). Particulars: protein: recombinant; tags: N-terminal His-tag, removed with thrombin; blunt.
Sequence of DUX4 HD2 Q143E (Q9UBX2 94-153 Q143E): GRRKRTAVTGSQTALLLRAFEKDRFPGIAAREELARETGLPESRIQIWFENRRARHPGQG
The target of another data set is DUX4 HD2 R96A (human, UniProt Q9UBX2 94-153, R96A). The note with it: protein: recombinant; tags: N-terminal His-tag, removed with thrombin; blunt.
Sequence of DUX4 HD2 R96A (Q9UBX2 94-153 R96A): as the sequence (Q9UBX2 94-153 Q143E) above, with R3A, E50Q counted along it
In the next data set the target is DUX4 HD2 R98A (human, UniProt Q9UBX2 94-153, R98A). The note with it: protein: recombinant; tags: N-terminal His-tag, removed with thrombin; blunt.
Sequence of DUX4 HD2 R98A (Q9UBX2 94-153 R98A): as the sequence (Q9UBX2 94-153 Q143E) above, with R5A, E50Q counted along it
In another data set the target is DUX4 HD2 R148E (human, UniProt Q9UBX2 94-153, R148E). The note with it: protein: recombinant; tags: N-terminal His-tag, removed with thrombin; blunt.
Sequence of DUX4 HD2 R148E (Q9UBX2 94-153 R148E): as the sequence (Q9UBX2 94-153 Q143E) above, with E50Q, R55E counted along it
In another data set the target is DUX4 HD2 N144E (human, UniProt Q9UBX2 94-153, N144E). The note with it: protein: recombinant; tags: N-terminal His-tag, removed with thrombin; blunt.
Sequence of DUX4 HD2 N144E (Q9UBX2 94-153 N144E): as the sequence (Q9UBX2 94-153 Q143E) above, with E50Q, N51E counted along it
Another data set concerns the target DUX4 HD2 R95A (human, UniProt Q9UBX2 94-153, R95A). Particulars: protein: recombinant; tags: N-terminal His-tag, removed with thrombin; blunt.
In another data set the target is DUX4 HD2 K97A (human, UniProt Q9UBX2 94-153, K97A). Particulars: protein: recombinant; tags: N-terminal His-tag, removed with thrombin; blunt.
Sequence of DUX4 HD2 K97A (Q9UBX2 94-153 K97A): as the sequence (Q9UBX2 94-153 Q143E) above, with K4A, E50Q counted along it
Another data set concerns the target DUX4 HD1-HD2 (human, UniProt Q9UBX2 19-153). The note with it: protein: recombinant; blunt.

Sequence of DUX4 HD1-HD2 (Q9UBX2 19-153): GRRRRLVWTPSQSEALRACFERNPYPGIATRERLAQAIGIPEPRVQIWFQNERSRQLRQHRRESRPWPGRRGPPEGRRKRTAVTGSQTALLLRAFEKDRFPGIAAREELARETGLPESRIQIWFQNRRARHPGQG
Sequence of DUX4 HD2 R95A (Q9UBX2 94-153 R95A): as the sequence (Q9UBX2 94-153 Q143E) above, with R2A, E50Q counted along it

B1: biotin-DNA-DRE (BLI) (dsDNA)
DNA 1: TTCTAATCTAATCA
DNA 2: TGATTAGATTAGAA
modifications: biotin
With B1, the Kd is 31 µM with DUX4 HD2 Q143E, 67 µM with DUX4 HD2 R148E, 55 µM in the data set with DUX4 HD2 N144E and 1.4 µM with DUX4 HD1-HD2. Further, the binding result in the data set with DUX4 HD2 R96A, with DUX4 HD2 R98A, with DUX4 HD2 R95A and with DUX4 HD2 K97A was “no binding” in each case.
